# In patent US20170165338A1:
# Target: HLA-A*02 (human)
# Assay: UV-exchange b2m ELISA
binder,measurement,value
SLTEVSLPL […],peptide exchange yield,50 to 75%
